The values that follow come from the supplement of paper PMC5998384.

Series [1] relates to HeLa Kyoto. Put plainly: solubility in G1/S (NP-40 vs SDS abundance) (log2 ratio); higher = more soluble. The following applies: cell cycle stage: G1/S.
In series [2] the test system is HeLa Kyoto. Put plainly: melting temperature (median over replicates), in situ; higher = more thermally stable.
Series [3] relates to HeLa Kyoto. Kind of series: solubility change mitosis vs G1/S (difference of NP-40 vs SDS log2 ratios) (log2 ratio difference); higher = more soluble in mitosis.
The test system of series [4] is HeLa Kyoto. Kind of series: thermal stability score vs G1/S (z-score of summed log2 fold changes over temperatures); higher = more thermally stable than in G1/S.
Setting [5] is: cell cycle stage: early G1 (4.5 h after nocodazole release).
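For melting temperature (median over replicates), in situ in this document: HeLa Kyoto cells synchronized by double thymidine or nocodazole block, proteins quantified by TMT10plex mass spectrometry, three independent biological replicates.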
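For solubility change mitosis vs G1/S (difference of NP-40 vs SDS log2 ratios) in this document: synchronized HeLa Kyoto cells (double thymidine block for G1/S, nocodazole release for mitosis), protein amounts in NP-40 versus SDS lysates quantified by mass spectrometry, three biological replicates.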
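For solubility in G1/S (NP-40 vs SDS abundance) in this document: HeLa Kyoto cells arrested at G1/S by double thymidine block, proteins quantified by TMT10plex mass spectrometry in mild NP-40 versus SDS extracts, three biological replicates.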
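For thermal stability score vs G1/S (z-score of summed log2 fold changes over temperatures) in this document: synchronized HeLa Kyoto cells, proteins quantified by TMT10plex mass spectrometry, three biological replicates, mitosis taken 0.5 h after nocodazole release, G1/S directly after double thymidine block.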

As for “MSSSGLNSEKVAALIQKLNSDPQFVLAQNVGTTHDLLDICLKRATVQRAQHVFQHAVPQEGKPITNQKSSGRCWIFSCLNVMRLPFMKKLNIEEFEFSQSYLFFWDKVERCYFFLSAFVDTAQRKEPEDGRLVQFLLMNPANDGGQWDMLVNIVEKYGVIPKKCFPESYTTEATRRMNDILNHKMREFCIRLRNLVHSGATKGEISATQDVMMEEIFRVVCICLGNPPETFTWEYRDKDKNYQKIGPITPLEFYREHVKPLFNMEDKICLVNDPRPQHKYNKLYTVEYLSNMVGGRKTLYNNQPIDFLKKMVAASIKDGEAVWFGCDVGKHFNSKLGLSDMNLYDHELVFGVSLKNMNKAERLTFGESLMTHAMTFTAVSEKDDQDGAFTKWRVENSWGEDHGHKGYLCMTDEWFSEYVYEVVVDRKHVPEEVLAVLEQEPIILPAWDPMGALAE [BLMH]”, the “solubility in G1/S (log2)” value in the series with HeLa Kyoto [1] was -0.128. The melting temperature with HeLa Kyoto [2] (cell cycle stage: G1/S) is 58.1 °C; with HeLa Kyoto [2] (cell cycle stage: mitosis), 59 °C. Besides, in the series with HeLa Kyoto [3], the “solubility change mitosis (log2)” value was -0.251. The thermal stability score with HeLa Kyoto [4] (setting [5]) is -1.55; in the series with HeLa Kyoto [4] (cell cycle stage: mitosis), -0.29.
Consider “MSSSNVEVFIPVSQGNTNGFPATASNDLKAFTEGAVLSFHNICYRVKLKSGFLPCRKPVEKEILSNINGIMKPGLNAILGPTGGGKSSLLDVLAARKDPSGLSGDVLINGAPRPANFKCNSGYVVQDDVVMGTLTVRENLQFSAALRLATTMTNHEKNERINRVIQELGLDKVADSKVGTQFIRGVSGGERKRTSIGMELITDPSILFLDEPTTGLDSSTANAVLLLLKRMSKQGRTIIFSIHQPRYSIFKLFDSLTLLASGRLMFHGPAQEALGYFESAGYHCEAYNNPADFFLDIINGDSTAVALNREEDFKATEIIEPSKQDKPLIEKLAEIYVNSSFYKETKAELHQLSGGEKKKKITVFKEISYTTSFCHQLRWVSKRSFKNLLGNPQASIAQIIVTVVLGLVIGAIYFGLKNDSTGIQNRAGVLFFLTTNQCFSSVSAVELFVVEKKLFIHEYISGYYRVSSYFLGKLLSDLLPMRMLPSIIFTCIVYFMLGLKPKADAFFVMMFTLMMVAYSASSMALAIAAGQSVVSVATLLMTICFVFMMIFSGLLVNLTTIASWLSWLQYFSIPRYGFTALQHNEFLGQNFCPGLNATGNNPCNYATCTGEEYLVKQGIDLSPWGLWKNHVALACMIVIFLTIAYLKLLFLKKYS [ABCG2]”, for which the “solubility in G1/S (log2)” value in the series with HeLa Kyoto [1] is -0.574. Besides, the melting temperature is 60.7 °C in the series with HeLa Kyoto [2] (cell cycle stage: G1/S) and 60.5 °C in the series with HeLa Kyoto [2] (cell cycle stage: mitosis). In addition, the “solubility change mitosis (log2)” value in the series with HeLa Kyoto [3] was -0.0838. Besides, the thermal stability score is -1.15 in the series on HeLa Kyoto [4] (setting [5]) and -0.412 in the series on HeLa Kyoto [4] (cell cycle stage: mitosis).
With “MSSSPLSKKRRVSGPDPKPGSNCSPAQSVLSEVPSVPTNGMAKNGSEADIDEGLYSRQLYVLGHEAMKRLQTSSVLVSGLRGLGVEIAKNIILGGVKAVTLHDQGTAQWADLSSQFYLREEDIGKNRAEVSQPRLAELNSYVPVTAYTGPLVEDFLSGFQVVVLTNTPLEDQLRVGEFCHNRGIKLVVADTRGLFGQLFCDFGEEMILTDSNGEQPLSAMVSMVTKDNPGVVTCLDEARHGFESGDFVSFSEVQGMVELNGNQPMEIKVLGPYTFSICDTSNFSDYIRGGIVSQVKVPKKISFKSLVASLAEPDFVVTDFAKFSRPAQLHIGFQALHQFCAQHGRPPRPRNEEDAAELVALAQAVNARALPAVQQNNLDEDLIRKLAYVAAGDLAPINAFIGGLAAQEVMKACSGKFMPIMQWLYFDALECLPEDKEVLTEDKCLQRQNRYDGQVAVFGSDLQEKLGKQKYFLVGAGAIGCELLKNFAMIGLGCGEGGEIIVTDMDTIEKSNLNRQFLFRPWDVTKLKSDTAAAAVRQMNPHIRVTSHQNRVGPDTERIYDDDFFQNLDGVANALDNVDARMYMDRRCVYYRKPLLESGTLGTKGNVQVVIPFLTESYSSSQDPPEKSIPICTLKNFPNAIEHTLQWARDEFEGLFKQPAENVNQYLTDPKFVERTLRLAGTQPLEVLEAVQRSLVLQRPQTWADCVTWACHHWHTQYSNNIRQLLHNFPPDQLTSSGAPFWSGPKRCPHPLTFDVNNPLHLDYVMAAANLFAQTYGLTGSQDRAAVATFLQSVQVPEFTPKSGVKIHVSDQELQSANASVDDSRLEELKATLPSPDKLPGFKMYPIDFEKDDDSNFHMDFIVAASNLRAENYDIPSADRHKSKLIAGKIIPAIATTTAAVVGLVCLELYKVVQGHRQLDSYKNGFLNLALPFFGFSEPLAAPRHQYYNQEWTLWDRFEVQGLQPNGEEMTLKQFLDYFKTEHKLEITMLSQGVSMLYSFFMPAAKLKERLDQPMTEIVSRVSKRKLGRHVRALVLELCCNDESGEDVEVPYVRYTIR [UBA1]”, the “solubility in G1/S (log2)” value in the series with HeLa Kyoto [1] was 0.11. Moreover, the melting temperature with HeLa Kyoto [2] (cell cycle stage: G1/S) was found to be 49.5 °C; in the series on HeLa Kyoto [2] (cell cycle stage: mitosis), 50 °C. In the series with HeLa Kyoto [3], the “solubility change mitosis (log2)” value is -0.171. Further, the thermal stability score in the series with HeLa Kyoto [4] (setting [5]) was 2.94; in the series with HeLa Kyoto [4] (cell cycle stage: mitosis), 5.38.
Turning to “MSSTLAKIAEIEAEMARTQKNKATAHHLGLLKARLAKLRRELITPKGGGGGGPGEGFDVAKTGDARIGFVGFPSVGKSTLLSNLAGVYSEVAAYEFTTLTTVPGVIRYKGAKIQLLDLPGIIEGAKDGKGRGRQVIAVARTCNLILIVLDVLKPLGHKKIIENELEGFGIRLNSKPPNIGFKKKDKGGINLTATCPQSELDAETVKSILAEYKIHNADVTLRSDATADDLIDVVEGNRVYIPCIYVLNKIDQISIEELDIIYKVPHCVPISAHHRWNFDDLLEKIWDYLKLVRIYTKPKGQLPDYTSPVVLPYSRTTVEDFCMKIHKNLIKEFKYALVWGLSVKHNPQKVGKDHTLEDEDVIQIVKK [DRG1]”, in the series on HeLa Kyoto [1], the “solubility in G1/S (log2)” value came out at 0.118. The values for the melting temperature in the series on HeLa Kyoto [2] (cell cycle stage: G1/S) and with HeLa Kyoto [2] (cell cycle stage: mitosis) were 53.8 °C and 53.4 °C, respectively. The “solubility change mitosis (log2)” value in the series on HeLa Kyoto [3] is -0.0219. Further, the thermal stability score in the series with HeLa Kyoto [4] (setting [5]) is -0.58; in the series with HeLa Kyoto [4] (cell cycle stage: mitosis), -2.04.
As for “MSSTQFNKGPSYGLSAEVKNRLLSKYDPQKEAELRTWIEGLTGLSIGPDFQKGLKDGTILCTLMNKLQPGSVPKINRSMQNWHQLENLSNFIKAMVSYGMNPVDLFEANDLFESGNMTQVQVSLLALAGKAKTKGLQSGVDIGVKYSEKQERNFDDATMKAGQCVIGLQMGTNKCASQSGMTAYGTRRHLYDPKNHILPPMDHSTISLQMGTNKCASQVGMTAPGTRRHIYDTKLGTDKCDNSSMSLQMGYTQGANQSGQVFGLGRQIYDPKYCPQGTVADGAPSGTGDCPDPGEVPEYPPYYQEEAGY [CNN2]”, the “solubility in G1/S (log2)” value in the series on HeLa Kyoto [1] stood at 0.456. Moreover, the melting temperature in the series with HeLa Kyoto [2] (cell cycle stage: G1/S) was determined as 48.8 °C; with HeLa Kyoto [2] (cell cycle stage: mitosis), 50.3 °C. Moreover, the “solubility change mitosis (log2)” value in the series on HeLa Kyoto [3] is -0.0021. In addition, the thermal stability score in the series on HeLa Kyoto [4] (setting [5]) was determined as 1.28; in the series with HeLa Kyoto [4] (cell cycle stage: mitosis), 1.97.
